In article PMC4873337:

Target: WT p45 Tcf1 (UniProt Q00417 1-419)
Test: EMSA

Sequence of WT p45 Tcf1 (Q00417 whole entry): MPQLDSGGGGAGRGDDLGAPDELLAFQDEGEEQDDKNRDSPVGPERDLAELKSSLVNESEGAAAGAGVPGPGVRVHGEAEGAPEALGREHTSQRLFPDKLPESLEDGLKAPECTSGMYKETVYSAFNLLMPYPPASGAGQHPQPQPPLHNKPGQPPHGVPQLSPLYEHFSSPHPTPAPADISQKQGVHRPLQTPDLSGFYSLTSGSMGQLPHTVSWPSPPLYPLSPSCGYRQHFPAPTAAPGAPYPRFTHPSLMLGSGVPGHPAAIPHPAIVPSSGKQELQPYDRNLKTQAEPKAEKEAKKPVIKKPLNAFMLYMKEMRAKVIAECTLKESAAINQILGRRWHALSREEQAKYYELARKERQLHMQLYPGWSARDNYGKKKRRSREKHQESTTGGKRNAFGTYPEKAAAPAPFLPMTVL

B1: TOP probe (dsDNA)
DNA 1: GATCTAGGGCACCCTTTGAAGCTCT
DNA 2: AGAGCTTCAAAGGGTGCCCTAGATC
B1: binds.
